Assay results: patent US20040259196A1, “T cell receptor variants expressed in mesenchymal cells and uses thereof” (priority 2001, published 2004)

Experiments:
[1] = tested on: anti-peptide SEQ ID NO:37 antibody; experiment: Competition of antibody binding by pre-incubation with the immunizing peptide; parameters: species or system rabbit; details: pre-incubation of purified immune serum with soluble peptide, 30 min, room temperature
Source text: FIGS. 2A-2F show flow cytometric analysis of J^intJ-Cβ2 expression by mesenchymal cells. Mouse embryonic fibroblasts (MEF) (2E) and different MBA-13 cell strains (1-3; 2A-2C, respectively) were stained with preimmunized (histogram I) or immunized (histogram II) purified antibodies from rabbit serum. The rabbits were immunized with a synthetic segment of SEQ ID NO:2, namely SEQ ID NO:37, with the sequence LAEPRGFVCGVE. As a second antibody, we used Fab FITC conjugated donkey anti-rabbit IgG. Staining with second antibody only gave a histogram shown in histogram III. Cells stained with rabbit polyclonal antibodies to irrelevant peptide 1121 of the sequence RGGGGGRGGLHD, similarly produced and purified, served as negative control (histogram IV). Competition of antibody binding was performed by pre-incubation of the purified immune serum with the specific immunizing peptide SEQ ID NO:37 for 30 min at room temperature (2D, histogram). Competition with irrelevant peptide 1121 served as negative control (data not shown). The results of one experiment, out of three performed, are shown.
This strongly supports the conclusion that J^int-Jβ2.6-C protein is present on the surface of the MBA-13 cells. It is noteworthy that thymocytes do express J^int-Jβ2.6-C on the mRNA level but are not reactive with the antibody (FIGS. 2F and 3). […]

[2] = target: J^int-Jβ2.6-C protein (truncated mesenchymal TCRβ lacking the V region) (mouse); experiment: flow cytometry on MBA-13 cells
[3] = tested on: 293T cells; experiment: Cell cycle flow cytometric analysis of transfected 293T cells; assay type: cell-based, human; details: 293T cells co-transfected with pTα
Source text: FIG. 13 Recombinant mesenchymal TCRβ (GFP-J^int-Jβ2.6-C) in a preTCR-like complex causes apoptotic cell death upon overexpression. (A) Immunofluorescence analysis of cells transfected with cDNA constructs encoding a fusion protein of J^int-Jβ2.6-C linked to GFP, together with pTα HA vector. (B) Western blot analysis of extracts from 293T cells transfected with GFP-J^int-Jβ2.6-C together with HA-pTα (lane 1). Control GFP and HA vectors (lane 2), GFP vector and HA-pTα0 (lane 3), HA vector and GFP-J^int-Jβ2.6-C (lane 4) and untransfected cells (lane 5). Immunoblotting was performed with an anti-GFP monoclonal antibody. The position of the fusion protein, GFP-J^int-Jβ2.6-C is indicated (GFP-J^int) as is the position of GFP free protein (GFP). (C) Cell cycle flow cytometric analysis of 293T cells transfected with the indicated vectors. The cell cycle analysis of GFP negative cells that were treated with GFP-J^int-Jβ2.6-C and pTα but remained untransfected (C-I) serves as a representative control; similar patterns were observed following transfection with empty vectors or separately with GFP-J^int-Jβ2.6-C and pTα. […]
Next, we examined the results of overexpression of J^int-Jβ2.6-Cβ. A cDNA construct encoding a fusion protein of J^int-Jβ2.6-C N-terminally linked to green fluorescence protein (GFP) was transfected along with pTα into human 293T cells (FIG. 13). […]

LAEPRGFVCGVE (listed as Mus musculus) [immunizing peptide]
competition of antiserum staining of MBA-13 cells [1]: reduced the ability of the antiserum to stain the cells

hamster anti-mouse TCRβ monoclonal antibody, clone H57-597
percent of the cell population stained [2]: 34%

B1: GFP-J^int-Jβ2.6-Cβ: fusion protein of J^int-Jβ2.6-C N-terminally linked to green fluorescence protein (GFP), expressed from a cDNA construct (protein)
chain: MGEYLAEPRGFVCGVEPLCSYEQYFGPGTRLTVLEDLRNVTPPKVSLFEPSKAEIANKQKATLVCLARGFFPDHVELSWWVNGKEVHSGVSTDPQAYKESNYSYCLSSRLRVSATFWHNPRNHFRCQVQFHGLSEEDKWPEGSPKPVTQNISAEAWGRADCGITSASYHQGVLSATILYEILLGKATLYAVLVSGLVLMAMVKKKNS
modifications: left off: large carriers
notes: fusion protein of J^int-Jβ2.6-C N-terminally linked to green fluorescence protein (GFP), expressed from a cDNA construct
shift of the population to sub-G1, indicating massive apoptosis [3]: 59%
